Positions count from the first letter of the chain named.
B1: 241 (protein)
chain: MTTRTRILTAFLSLLAANACAADAAPAAPHTVVLRAARMFDGASGKLVDHPQLTIVGNKIVRIAQGDKAEVPAGAEVVDLGDATLLPGFIDAHVHLSGQSSDNWYGDFFDNMMRFPAEQALYGAYYARITLEAGFTSVRDVGSTDWVALGLRNAIDAGKVPGPRMLVSNYAVGSTGGHADQDPIPPHKLPLAGPLQGVCNGPEECRAAVRYQIKYGANVIKFMPSGGVLSLSDPVDAPELSQDEMNAVIGESHAWGRKVAAHAHGDKAAKMAVAAGVDSIEHGSFIEDDTLRAMKAKNVYLVPTISAIAHVEEKIGTFPPVIAEKGRAAAAELRQTFRHAVQIGVPIALGTDAGVGAHGSNAREFRYMVENGLTPAQALLAGTANAARLLGTFDRVGTLEAGKLADVVAVPGNPIADITVTERPLFVMKDGVVVRRDAVR
modifications: exemplary polypeptide
B2: 245 (protein)
chain: B1 chain with E332H, H339K
modifications: exemplary polypeptide
B3: 242 (protein)
chain: B1 chain with E332R
modifications: exemplary polypeptide
B4: 282 (protein)
chain: B1 chain with V235A, E332H
modifications: exemplary polypeptide
B5: 262 (protein)
chain: B1 chain with G98V, E332H
modifications: exemplary polypeptide
B6: 246 (protein)
chain: B1 chain with E332H, H339N
modifications: exemplary polypeptide
B7: 247 (protein)
chain: B1 chain with E332H, H339S
modifications: exemplary polypeptide
B8: 248 (protein)
chain: B1 chain with E332H, A353S
modifications: exemplary polypeptide
B9: 272 (protein)
chain: B1 chain with Q119E, E332H
modifications: exemplary polypeptide
B10: 275 (protein)
chain: B1 chain with Q119M, E332H
modifications: exemplary polypeptide
B11: 268 (protein)
chain: B1 chain with M112F, E332H
modifications: exemplary polypeptide
B12: 260 (protein)
chain: B1 chain with H310E, E313A, E332H
modifications: exemplary polypeptide
B13: 253 (protein)
chain: B1 chain with E332H, N361Q
modifications: exemplary polypeptide
B14: 243 (protein)
chain: B1 chain with E332S
modifications: exemplary polypeptide
B15: 259 (protein)
chain: B1 chain with H310D, E313A, E332H
modifications: exemplary polypeptide
B16: 285 (protein)
chain: B1 chain with V235L, E332H
modifications: exemplary polypeptide
B17: 261 (protein)
chain: B1 chain with G98S, E332H
modifications: exemplary polypeptide
B18: 256 (protein)
chain: B1 chain with H187N, K188R, E332H
modifications: exemplary polypeptide
B19: 274 (protein)
chain: B1 chain with Q119K, E332H
modifications: exemplary polypeptide
B20: 273 (protein)
chain: B1 chain with Q119H, E332H
modifications: exemplary polypeptide
B21: 280 (protein)
chain: B1 chain with V198T, E332H
modifications: exemplary polypeptide
B22: 281 (protein)
chain: B1 chain with L231F, E332H
modifications: exemplary polypeptide
B23: 244 (protein)
chain: B1 chain with E332H, H339E
modifications: exemplary polypeptide
B24: 286 (protein)
chain: B1 chain with L231E, V321T, E332H
modifications: exemplary polypeptide
B25: 284 (protein)
chain: B1 chain with V235F, E332H
modifications: exemplary polypeptide

Assay: OTA detoxification activity assay (specific activity, fluorescence reduction ex/em 390/450 nm)
Type: biochemical
Conditions: pH 6.0; SEQ ID NO: 1 = 100%
Outline: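 Recombinant enzyme preparation with 200 ng/mL OTA in 100 mM sodium phosphate, at pH 6.0 and pH 7.5, 37° C. Degradation followed as the fall in fluorescence at ex/em 390/450 nm. Specific activity taken from the initial linear slope; one unit degrades 1 μmol OTA per min at a starting OTA of […].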

| Molecule | Specific OTA detoxification activities in % compared to the enzyme of SEQ ID NO: 1, pH 6.0 |
| --- | --- |
| B1 | 18% |
| B2 | 62% |
| B3 | 41% |
| B4 | 77% |
| B5 | 116% |
| B6 | 113% |
| B7 | 80% |
| B8 | 131% |
| B9 | 121% |
| B10 | 71% |
| B11 | 25% |
| B12 | 83% |
| B13 | 93% |
| B14 | 37% |
| B15 | 56% |
| B16 | 28% |
| B17 | 78% |
| B18 | 116% |
| B19 | 100% |
| B20 | 134% |
| B21 | 70% |
| B22 | 90% |
| B23 | 127% |
| B24 | 39% |
| B25 | 48% |

Same assay, conditions: pH 7.5; SEQ ID NO: 1 = 100%

| Molecule | Specific OTA detoxification activities in % compared to the enzyme of SEQ ID NO: 1, pH 7.5 |
| --- | --- |
| B1 | 55% |
| B2 | 59% |
| B3 | 54% |
| B4 | 41% |
| B5 | 106% |
| B6 | 89% |
| B7 | 100% |
| B8 | 91% |
| B9 | 86% |
| B10 | 85% |
| B11 | 39% |
| B12 | 81% |
| B13 | 87% |
| B14 | 77% |
| B15 | 54% |
| B16 | 21% |
| B17 | 95% |
| B18 | 101% |
| B19 | 100% |
| B20 | 76% |
| B21 | 50% |
| B22 | 50% |
| B23 | 93% |
| B24 | 17% |
| B25 | 23% |

Assay: Enzymatic activity comparison: activity remaining after 65° C. for 10 min at pH 6.0, relative to SEQ ID NO: 1
Type: physicochemical
Conditions: not given
Description: To compare the temperature behavior and thermostability of selected enzymes to one another, enzyme was incubated at 65° C. for 10 min at pH 6.0. The enzymatic activity remaining after incubation was compared to the remaining activity of the enzyme of SEQ ID NO: 1 after incubation, the latter being set to 100%, see Table 16.

| Molecule | Enzymatic activity remaining after incubation, compared to SEQ ID NO: 1 (set to 100%) |
| --- | --- |
| B1 | 73% |
| B2 | 37% |
| B3 | 11% |
| B4 | 28% |
| B5 | 40% |
| B6 | 27% |
| B7 | 53% |
| B8 | 38% |
| B9 | 41% |
| B10 | 25% |
| B11 | 28% |
| B12 | 27% |
| B13 | 22% |
| B14 | 41% |
| B15 | 41% |
| B16 | 63% |
| B17 | 60% |
| B18 | 36% |
| B19 | 32% |
| B20 | 34% |
| B21 | 31% |
| B22 | 13% |
| B23 | 33% |
| B24 | 33% |
| B25 | 13% |
